The record followed here is paper PMC6269517.

This data set has as its target Cy5-S15(T79C), 30S ribosomal protein S15 (Escherichia coli, UniProt P0ADZ4 1-89, T79C). Description: single-molecule FRET (ZMW); pre-folded; >80% of molecules bind stably; read-out is H20-H22 closure, S15 label in this assay not stated; 50 mM Tris pH 7.5, 14 mM MgCl2, 20 mM NaCl, 150 mM KCl, 0.04 mM EDTA, 40 ug/ml BSA, 0.01% Triton X-100, 2 mM spermidine, 1 mM putrescine; 20 C unless stated; 0.

B1: 85 nt minimal 3-way junction (p0099A/B/C) (structured_RNA)
RNA 1: GGCGCACGCAGGCGGUUUGCCG
RNA 2: CGGCAAGCUUGAGUCUCGUAGAGGGGGGU
RNA 3: GCCCCCUGGACGAAGACUGACGCUCAGGUGCGCC
For the molecule B1, the binding result is reported as “binds”.
